The results in this text go back to PMC3830201 (2013).

This assay has as its target F-actin assembled from rabbit skeletal muscle G-actin (Oryctolagus cuniculus (Rabbit), UniProt P68135). Kind of assay: F-actin co-sedimentation.

B1: GST-Swiprosin-1 fusion protein (wild type) (protein)
chain: MATDELATKLSRRLQMEGEGGGETPEQPGLNGAAAAAAGAPDEAAEALGSADCELSAKLLRRADLNQGIGEPQSPSRRVFNPYTEFKEFSRKQIKDMEKMFKQYDAGRDGFIDLMELKLMMEKLGAPQTHLGLKNMIKEVDEDFDSKLSFREFLLIFRKAAAGELQEDSGLCVLARLSEIDVSSEGVKGAKSFFEAKVQAINVSSRFEEEIKAEQEERKKQAEEMKQRKAAFKELQSTFK
For the molecule B1, the binding result is given as “binds”.
